In patent publication US20230094162A1 (MacroGenics, published 2023):
Where two headings read alike, the source gives them in different places.

Columns and labels:
[1] = target: T1, PD-L1 expressed on the cell surface (CHO/PD-L1 cells) (UniProt Q9NZQ7 19-290); experiment: cell-based or functional assay
[2] = target: T2, CD137 expressed on the cell surface (CHO/CD137 cells) (UniProt Q07011 24-255, limits assumed); experiment: flow cytometry (FACS) on CHO cells expressing CD137, MFI
T2 construct: whole, on cells; also called cell surface CD137; Jurkat-NF-κB-Luc reporter cells overexpressing CD137
Method: FACS analysis to evaluate the test articles for binding to cell surface CD137 was performed essentially as follows: 100 μL of CHO cells expressing CD137 (CHO/CD137) (1.0×10⁵ to 1×10⁶ cells/well) and 100 μL of serially diluted test article or control was added to each well of microtiter assay plate(s), mixed and incubated at RT for about 30 min. The cells were washed with FACS Buffer and secondary antibody (goat anti-human-APC, PE, or FITC) was then added to each well (1:1000), after which, the components were mixed and the wells were incubated at RT for about 30 min. Cells were washed and resuspended in 250 μL FACS Buffer and analyzed by flow cytometry (BD LSR Fortessa or FACSCanto II) for cell events collection. Data analysis were performed via FloJo v10.

[3] = target: T1, PD-L1 expressed on the cell surface …; experiment: cell-based or functional assay; remark: listed apart in the source
[4] = target: T3, soluble PD-L1 fused to a His tag (shPD-L1) (UniProt Q9NZQ7 19-238, limits assumed); experiment: ELISA on plate-coated shPD-L1-his, anti-human kappa-HRP detection, RLU
T3 construct: the species of shPD-L1 is not written out; also called shPD-L1-his; not shown: His tag
Method: ELISA assays to evaluate the test articles for CD137 binding were performed essentially as follows: flat bottom maxisorb 96-well plates were coated with soluble human or cynomolgus monkey CD137 (the extracellular domain of human or cynomolgus monkey CD137 fused to a His tag (shCD137 His or scyCD137 His) or to a human Fc Region (shCD137 hFc or scyCD137 hFc)), each at 0.5 or 1 μg/mL. The plates were washed, blocked with PBS buffer containing 0.5% bovine serum albumin and 0.1% Tween20, and incubated with a test article (e.g., cell supernatants or purified mAb). For the hybridoma supernatants anti-CD137 antibody was utilized at 1.0 μg/mL and six three-fold serial dilutions. The amount of test article binding to the immobilized CD137 (human or cynomolgus monkey) was assessed using a goat anti-mouse IgG-HRP secondary antibody. All samples were analyzed on a plate reader (Victor 2 Wallac, Perkin Elmer) and EC50 values were calculated from dose-response curves by nonlinear regression analysis.
The binding of Fab fragments comprising different combinations of these substitutions to shPD-L1-his was evaluated by ELISA essentially as described above except a goat anti-human kappa-HRP secondary antibody was used.

T3 sequence (Q9NZQ7 19-238 limits assumed): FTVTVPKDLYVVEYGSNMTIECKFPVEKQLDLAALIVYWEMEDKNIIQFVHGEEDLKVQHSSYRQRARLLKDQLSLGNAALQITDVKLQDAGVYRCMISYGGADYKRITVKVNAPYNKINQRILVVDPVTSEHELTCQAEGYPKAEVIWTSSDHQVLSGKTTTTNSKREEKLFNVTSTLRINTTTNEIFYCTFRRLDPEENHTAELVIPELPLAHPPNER
T1 sequence (Q9NZQ7 19-290): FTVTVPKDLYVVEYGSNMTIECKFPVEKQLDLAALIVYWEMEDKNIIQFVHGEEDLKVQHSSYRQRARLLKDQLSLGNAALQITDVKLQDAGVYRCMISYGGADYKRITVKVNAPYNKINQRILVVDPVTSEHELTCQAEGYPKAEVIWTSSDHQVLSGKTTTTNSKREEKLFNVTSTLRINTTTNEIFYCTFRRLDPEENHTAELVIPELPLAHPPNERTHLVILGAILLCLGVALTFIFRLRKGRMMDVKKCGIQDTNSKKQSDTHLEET
T2 sequence (Q07011 24-255 limits assumed): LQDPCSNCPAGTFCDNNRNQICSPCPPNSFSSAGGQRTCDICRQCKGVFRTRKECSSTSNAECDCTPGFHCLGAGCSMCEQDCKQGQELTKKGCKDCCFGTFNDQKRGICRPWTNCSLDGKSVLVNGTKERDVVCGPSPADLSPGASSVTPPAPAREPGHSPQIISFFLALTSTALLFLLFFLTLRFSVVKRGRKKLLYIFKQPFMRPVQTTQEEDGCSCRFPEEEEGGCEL

| EC50 (read off the curve) [3] [µg/mL] | binding result [4] | Binder | further results |
| --- | --- | --- | --- |
| ~0.1 |  | DART-A8 (bispecific antibody) chain 1: DIQMTQSPSSLSASVGDRVTITCKASQDVNEAVAWYQQKPGKAPKLLIYWASTRHTGVPSRFSGSGSGTDFTLTISSLQPEDFATYYCQQHYNTPLTFGQGTKVEIKGGGSGGGGQVQLQESGPGLVKPSETLSLTCTVSGGSISSYYWSWIRQPPGKGLEWIGRIYTSGSTNYNPSLKSRVTMSVDTSKNQFSLKLSSVTAADTAVYYCARDGWYDEDYNYYGMDVWGQGTTVTVSSGGCGGGEVAACEKEVAALEKEVAALEKEVAALEKLEPKSADKTHTCPPCPAPEAAGGPSVFLFPPKPKDTLYITREPEVTCVVVDVSHEDPEVKFNWYVDGVEVHNAKTKPREEQYNSTYRVVSVLTVLHQDWLNGKEYKCKVSNKALPAPIEKTISKAKGQPREPQVYTLPPSREEMTKNQVSLTCLVKGFYPSDIAVEWESNGQPENNYKTTPPVLDSDGSFFLYSKLTVDKSRWQQGNVFSCSVMHEALHNHYTQKSLSLSPGK chain 2: EIVMTQSPATLSLTPGERATLSCRASQSVSSNYLSWFQQIPGQAPRLLIYGASTRATGIPARFSGSGSGTDFTLTISSLQPEDFAVYYCQQDYDLPWTFGQGTKVEIKGGGSGGGGEVQLVESGGGLVQPGGSLRLSCAASGFTFSSYTMSWVRQAPGKGLEWVAYISIKGGTTYYPDTVKGRFTISRDNAKNSLYLQMNSLRAEDTAVYYCARAGLPYYFDYWGQGTLVTVSSGGCGGGKVAACKEKVAALKEKVAALKEKVAALKE |  |
| ~0.1 |  | DART-A9 (bispecific antibody) chain 1: DIQMTQSPSSLSASVGDRVTITCKASQDVNEAVAWYQQKPGKAPKLLIYWASTRHTGVPSRFSGSGSGTDFTLTISSLQPEDFATYYCQQHYNTPLTFGQGTKVEIKGGGSGGGGQVQLQESGPGLVKPSETLSLTCTVSGGSISSYYWSWIRQPPGKGLEWIGRIYTSGSTNYNPSLKSRVTMSVDTSKNQFSLKLSSVTAADTAVYYCARDGWYDEDYNYYGMDVWGQGTTVTVSSGGCGGGEVAACEKEVAALEKEVAALEKEVAALEKLEPKSADKTHTCPPCPAPEAAGGPSVFLFPPKPKDTLYITREPEVTCVVVDVSHEDPEVKFNWYVDGVEVHNAKTKPREEQYNSTYRVVSVLTVLHQDWLNGKEYKCKVSNKALPAPIEKTISKAKGQPREPQVYTLPPSREEMTKNQVSLTCLVKGFYPSDIAVEWESNGQPENNYKTTPPVLDSDGSFFLYSKLTVDKSRWQQGNVFSCSVMHEALHNHYTQKSLSLSPGK chain 2: EIVMTQSPATLSLTPGERATLSCRASQSVSSNYLSWFQQIPGQAPRLLIYGASTRATGIPARFSGSGSGTDFTLTISSLQPEDFAVYYCQQDYDLPWTFGQGTKVEIKGGGSGGGGEVQLVESGGGLVQPGGSLRLSCAASGFTFSSYTMSWVRQAPGKGLEWVAYISIGGGTTYYPDTVKGRFTISRDNAKNSLYLQMNSLRAEDTAVYYCARAGLPYYGDYWGQGTLVTVSSGGCGGGKVAACKEKVAALKEKVAALKEKVAALKE |  |
|  | binds | hPD-L1 MAB-2E (Fab) (Fab, V domains shown, Fab fragment) VH: EVQLVESGGGLVQPGGSLRLSCAASGFTFSSYTMSWVRQAPGKGLEWVAYISIKGGTTYYPDTVKGRFTISRDNAKNTLYLQMNSLKTEDTAVYYCARAGLPYYFDYWGQGTLVTVSS VL: DIQMTQSPSSLSASVGDRVTITCKASQLVNTAVAWYQQKPGKAPKLLIYWASTRHTGVPSRFSGSGSGTDFTLTISSLQPEDFATYYCQQHYNTPLTFGQGTKVEIK |  |
|  | binds | hPD-L1 MAB-2B (Fab) (Fab, V domains shown, Fab fragment) VH: EVQLVESGGGLVQPGGSLRLSCAASGFTFSGYTMSWVRQAPGKGLEWVAYISIKGGTTYYPDTVKGRFTISRDNAKNTLYLQMNSLKTEDTAVYYCARGGLPYYFDYWGQGTLVTVSS VL: DIQMTQSPSSLSASVGDRVTITCKASQVVNTAVAWYQQKPGKAPKLLIYWASTRHTGVPSRFSGSGSGTDFTLTISSLQPEDFATYYCQQHYNTPLTFGQGTKVEIK |  |

The next lines start with the binder.

| Binder | EC50 (read off the curve) [3] [µg/mL] | binding result [4] | further results |
| --- | --- | --- | --- |
| DART-A7 (bispecific antibody, Tetravalent; CD137 MAB-6(1.1) and hPD-L1 MAB-2(4.2)) chain 1: DIQMTQSPSSLSASVGDRVTITCKASQDVNEAVAWYQQKPGKAPKLLIYWASTRHTGVPSRFSGSGSGTDFTLTISSLQPEDFATYYCQQHYNTPLTFGQGTKVEIKGGGSGGGGQVQLQESGPGLVKPSETLSLTCTVSGGSISSYYWSWIRQPPGKGLEWIGRIYTSGSTNYNPSLKSRVTMSVDTSKNQFSLKLSSVTAADTAVYYCARDGWYDEDYNYYGMDVWGQGTTVTVSSGGCGGGEVAACEKEVAALEKEVAALEKEVAALEKLEPKSADKTHTCPPCPAPEAAGGPSVFLFPPKPKDTLYITREPEVTCVVVDVSHEDPEVKFNWYVDGVEVHNAKTKPREEQYNSTYRVVSVLTVLHQDWLNGKEYKCKVSNKALPAPIEKTISKAKGQPREPQVYTLPPSREEMTKNQVSLTCLVKGFYPSDIAVEWESNGQPENNYKTTPPVLDSDGSFFLYSKLTVDKSRWQQGNVFSCSVMHEALHNHYTQKSLSLSPGK chain 2: EIVMTQSPATLSLTPGERATLSCRASQSVSSNYLSWFQQIPGQAPRLLIYGASTRATGIPARFSGSGSGTDFTLTISSLQPEDFAVYYCQQDYDLPWTFGQGTKVEIKGGGSGGGGEVQLVESGGGLVQPGGSLRLSCAASGFTFSSYTMSWVRQAPGKGLEWVAYISIGGGTTYYPDTVKGRFTISRDNAKNSLYLQMNSLRAEDTAVYYCARAGLPYYFDYWGQGTLVTVSSGGCGGGKVAACKEKVAALKEKVAALKEKVAALKE | ~0.1 |  | EC50 (read off the curve) [1]: ~0.2 µg/mL; EC50 (read off the curve) [2]: ~0.05 µg/mL |
| DART-A10 (bispecific antibody, Tetravalent; CD137 MAB-6(1.3) and hPD-L1 MAB-2(4.2)) chain 1: DIQMTQSPSSLSASVGDRVTITCKASQDVNEAVAWYQQKPGKAPKLLIYWASTRHTGVPSRFSGSGSGTDFTLTISSLQPEDFATYYCQQHYNTPLTFGQGTKVEIKGGGSGGGGQVQLQESGPGLVKPSETLSLTCTVSGGSISSYYWSWIRQPPGKGLEWIGRIYTSGSTNYNPSLKSRVTMSVDTSKNQFSLKLSSVTAADTAVYYCARDGWYDEDYNYYGMDVWGQGTTVTVSSGGCGGGEVAACEKEVAALEKEVAALEKEVAALEKLEPKSADKTHTCPPCPAPEAAGGPSVFLFPPKPKDTLYITREPEVTCVVVDVSHEDPEVKFNWYVDGVEVHNAKTKPREEQYNSTYRVVSVLTVLHQDWLNGKEYKCKVSNKALPAPIEKTISKAKGQPREPQVYTLPPSREEMTKNQVSLTCLVKGFYPSDIAVEWESNGQPENNYKTTPPVLDSDGSFFLYSKLTVDKSRWQQGNVFSCSVMHEALHNHYTQKSLSLSPGK chain 2: EIVMTQSPATLSLSPGERATLSCRASQSVSSNYLSWFQQKPGQAPRLLIYGASTRATGIPARFSGSGSGTDFTLTISSLQPEDFAVYYCQQDYDLPWTFGQGTKVEIKGGGSGGGGEVQLVESGGGLVQPGGSLRLSCAASGFTFSSYTMSWVRQAPGKGLEWVAYISIGGGTTYYPDTVKGRFTISRDNAKNSLYLQMNSLRAEDTAVYYCARAGLPYYFDYWGQGTLVTVSSGGCGGGKVAACKEKVAALKEKVAALKEKVAALKE |  |  | EC50 (read off the curve) [1]: ~0.2 µg/mL; EC50 (read off the curve) [2]: ~0.05 µg/mL |
| hPD-L1 MAB-2A (Fab) (Fab, V domains shown, Fab fragment) VH: EVQLVESGGGLVQPGGSLRLSCAASGFTFSGYTMSWVRQAPGKGLEWVAYISIKGGTTYYPDTVKGRFTISRDNAKNTLYLQMNSLKTEDTAVYYCARAGLPYYFDYWGQGTLVTVSS VL: DIQMTQSPSSLSASVGDRVTITCKASQHVNTAVAWYQQKPGKAPKLLIYWASTRHTGVPSRFSGSGSGTDFTLTISSLQPEDFATYYCQQHYNTPLTFGQGTKVEIK |  | binds |  |
| hPD-L1 MAB-2C (Fab) (Fab, V domains shown, Fab fragment) VH: EVQLVESGGGLVQPGGSLRLSCAASGFTFSGYTMSWVRQAPGKGLEWVAYISIKGGTTYYPDTVKGRFTISRDNAKNTLYLQMNSLKTEDTAVYYCARQGLPYYGDYWGQGTLVTVSS VL: DIQMTQSPSSLSASVGDRVTITCKASQLVNTAVAWYQQKPGKAPKLLIYWASTRHTGVPSRFSGSGSGTDFTLTISSLQPEDFATYYCQQHYNTPLTFGQGTKVEIK |  | binds |  |
| hPD-L1 MAB-2D (Fab) (Fab, V domains shown, Fab fragment) VH: EVQLVESGGGLVQPGGSLRLSCAASGFTFSSYTMSWVRQAPGKGLEWVAYISIGGGTTYYPDTVKGRFTISRDNAKNTLYLQMNSLKTEDTAVYYCARQGLPYYGDYWGQGTLVTVSS VL: DIQMTQSPSSLSASVGDRVTITCKASQLVNTAVAWYQQKPGKAPKLLIYWAETRHTGVPSRFSGSGSGTDFTLTISSLQPEDFATYYCQQHYNTPLTFGQGTKVEIK |  | binds |  |
